The target in data set [1] is Sa_enolase D355A mutant (Staphylococcus aureus) (UniProt Q2G028). The data set is described as follows: SEC. (In general: In gel filtration, larger molecules generally elute earlier.)
Data set [2] concerns the target Sa_enolase G138A mutant (Staphylococcus aureus) (UniProt Q2G028). The data set is described as follows: SEC.
Data set [3] deals with O=C(O)[C@@H](CO)OP(=O)(O)O. The data set is described as follows: purified protein. To be noted: octamer, room temperature, 20 mM IMD–HCl, 400 mM KCl, 1 mM magnesium acetate pH 7.0.
Data set [4] concerns the target Sa_enolase Y135A mutant (Staphylococcus aureus) (UniProt Q2G028). The data set is described as follows: SEC.
For a further data set, the target named is T1, Sa_enolase (octamer) (Staphylococcus aureus, UniProt O69174).
T1 construct: gene eno; C-terminal hexahistidine tag, pET-24a, E. coli BL21(DE3); residues 1-434 described; octamer fraction separated from dimer by size-exclusion chromatography
As to the kind of experiment: isothermal titration calorimetry. Format: binding. On the technique in general: Isothermal titration calorimetry measures the heat released or taken up as one component is titrated into another.

Data set [5] addresses Sa_enolase F139A mutant (Staphylococcus aureus) (UniProt Q2G028). The data set is described as follows: SEC.
The target in data set [6] is Staphylococcus aureus enolase, wild type (Staphylococcus aureus) (UniProt Q2G028). The data set is described as follows: crystal structure; non-ligand-bound Sa_enolase, 2.45 Å, space group P42(1)2, a homodimer in the asymmetric unit, octamer by fourfold crystallographic symmetry; 0.01 M cobalt(II) chloride, 0.1 M MES pH 6.5, 1.8 M ammonium sulfate, 16°C.
Data set [7] shares this target. As to the kind of experiment: crystal structure; PEP-bound Sa_enolase, 1.6 Å, space group I4, co-crystallised with 2-PG (1:10); 0.2 M ammonium acetate, 0.1 M Tris-HCl pH 8.5, 25% PEG 3350, 16°C.

The source of these data is publication PMC4667285, “Octameric structure of Staphylococcus aureus enolase in complex with phosphoenolpyruvate” (Acta Crystallographica Section D: Biological Crystallography, 2015).

One may read the stoichiometry N as a count of units in the complex or per binding partner. “Sa_enolase D355A mutant (from UniProt Q2G028) (enzyme)” yielded a stoichiometry N in data set [1] of 2. In turn, “Sa_enolase G138A mutant (from UniProt Q2G028) (enzyme)” gave a stoichiometry N in data set [2] of 2.

Usually Vmax stands for the rate approached at saturating substrate. Broadly, the kcat is the number of substrate molecules converted per active site and unit of time at saturation. The term kcat/Km denotes the second-order rate constant that governs catalysis at low substrate concentration. With “Sa_enolase (octamer) (Staphylococcus aureus)”, in data set [3], the Km is 0.365 ± 0.030 × 10^−3 M, the Vmax amounted to 74.8 µM/min, the kcat amounted to 83 s⁻¹ and the kcat/Km was 227000 M⁻¹ s⁻¹.

With “Sa_enolase Y135A mutant (from UniProt Q2G028) (enzyme)”, the stoichiometry N in data set [4] was 2.

By Kd is commonly meant the free concentration of one partner at which half of the binding sites on the other are occupied at equilibrium, for simple one-to-one binding. Low readings indicate higher affinity, high ones lower affinity. On to `O=C(O)[C@@H](CO)OP(=O)(O)O` [2-PG], for which, at Sa_enolase (octamer), binding was characterised by a dissociation constant (Kd) of 15 ± 2.6 µM. As for “Sa_enolase F139A mutant (from UniProt Q2G028) (enzyme)”, the stoichiometry N in data set [5] turned out to be 2. Consider “Staphylococcus aureus enolase, wild type (from UniProt Q2G028) (enzyme)”, for which the stoichiometry N in data set [6] and in data set [7] was 8 throughout.
